Test [1] addresses Taxol-stabilised microtubules polymerised from porcine brain tubulin (porcine) (UniProt P02550). In words: co-sedimentation.
Test [2] has as its target subtilisin-digested microtubules (lacking E-hooks) (porcine) (UniProt P02550). Nature of the test: co-sedimentation.

From paper PMC9635285 come the findings set out here.

“And” between values parts separate entries of the source, which are not always exact repeats. Equal values may be shown once.

Chain of UniProt P02550 (P02550 whole entry, looked up): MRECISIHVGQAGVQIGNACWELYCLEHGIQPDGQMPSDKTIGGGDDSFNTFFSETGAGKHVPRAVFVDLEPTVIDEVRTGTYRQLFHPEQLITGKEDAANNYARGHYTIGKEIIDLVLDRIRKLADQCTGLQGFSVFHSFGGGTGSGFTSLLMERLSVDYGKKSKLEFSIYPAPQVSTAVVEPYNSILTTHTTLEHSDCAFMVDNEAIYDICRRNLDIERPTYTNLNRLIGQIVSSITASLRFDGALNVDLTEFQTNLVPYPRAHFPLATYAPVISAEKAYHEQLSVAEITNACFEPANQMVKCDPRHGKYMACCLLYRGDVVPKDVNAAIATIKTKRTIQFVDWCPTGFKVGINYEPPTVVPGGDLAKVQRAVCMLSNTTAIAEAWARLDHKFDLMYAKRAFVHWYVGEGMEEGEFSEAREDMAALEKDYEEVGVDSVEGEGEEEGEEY

On to “KLP-18 C-stalk (C-terminal half of the KLP-18 stalk) (domain or fragment)”, for which the Shift to pellet (%) is 52.7% and 50.8% in test [1]; 26.7% in test [2].
Turning to MBP-MESP-1 (natural protein), the Shift to pellet (%) in test [1] is 56.1% and 41.6%.
